Measured values: article PMC4355918

Target: hnRNP C1 (UniProt P07910-2 1-293)
Assay: filter binding

With AACUUAAUGUUUUUGCAUUGGUCUUUGAGUUA (structured_RNA) [MALAT1 2,577-U] the binding signal was roughly 4 fold stronger than N1.
